{"source": "paper PMC11053944", "about": "“FRET Assays for the Identification of C. albicans HSP90-Sba1 and Human HSP90α-p23 Binding Inhibitors” (Pharmaceuticals, 2024)", "key": {"[1]": {"target": "T1, human HSP90α-mNeonGreen–p23-mScarlet-I binding (Homo sapiens, UniProt P07900, E47A)", "T1 construct": "made in house; host or cells: E. coli Rosetta2(DE3) pLysS", "experiment": "FRET characterization of model inhibitors and ATP on human HSP90α-p23 binding", "conditions": "5 mM ATP", "method": "In this investigation, 1 µM HSP90-mNeonGreen was incubated with 2 µM Sba1-mScarlet-I in reaction buffer containing 5 mM ATP either alone (UC) or with the addition of 20 µM Sba1. As a negative control, samples containing 20 µM bovine serum albumin (BSA) were used.\nFRET experiments were carried out in 384-well microtiter plates (Art. No. 3766 Corning, NY, USA, or Art. No. 781906, Greiner Bio-One GmbH, Frickenhausen, Germany) containing a final volume of 20 µL and measured with a microplate reader Infinite M200Pro (Tecan, Männedorf, Switzerland). The fluorescence was measured in three channels: excitation (ex.): 488 nm/emission (em.): 525 nm (mNeonGreen fluorescence), ex.: 561 nm/em.: 610 nm (mScarlet-I fluorescence) and the FRET channel ex.: 488 nm/em.: 610 nm. The excitation and emission bandwidths were set to 9 and 20 nm, respectively. Experiments for the determination of the equilibrium dissociation constants were performed with a filter-based microplate reader Infinite F200Pro (Tecan, Männedorf, Switzerland). The fluorescence was measured in three channels using the following filters: ex.: 485 ± 20 nm/em.: 535 ± 20 nm (mNeonGreen channel), ex.: 535 ± 20 nm/em.: 612 ± 10 nm (mScarlet-I channel) and the FRET channel ex.: 485 ± 20 nm/em.: 612 ± 10 nm. FRET emission (EmFRET) was calculated according to Song et al. 2011 [81]:(1) EmFRET=FLDA−x×FLDD−(y×FLAA) where FLDA is the fluorescence signal of the FRET channel and FLDD and FLAA are fluorescence signals from the mNeonGreen and mScarlet-I channels, respectively. The correction factors x and y were calculated as follows:(2) x=FLDA/FLDD for samples containing only the donor fluorophore or fluorescent fusion proteins with mNeonGreen and (3) y=FLDA/FLAA for samples containing only the acceptor fluorophore or fluorescent fusion proteins with mScarlet-I in the same concentration as samples containing both the donor and acceptor.\nAll experiments were carried out in reaction buffer (40 mM HEPES/KOH pH 7.5, 20 mM KCl, 5 mM MgCl2, 20 mM Na2MoO4, Triton-X 100 0.1%). HEPES and KCl were purchased from AppliChem, Darmstadt, Germany. KOH and MgCl2 were obtained from VWR Chemicals, Darmstadt, Germany. Na2MoO4 was from Merck, Darmstadt, Germany. Triton-X 100 was purchased from Serva, Heidelberg, Germany.\nFor C. albicans Sba1 competition experiments for HSP90-mNeonGreen–Sba1-mScarlet-I binding, 1 µM HSP90-mNeonGreen and 1 µM Sba1-mScarlet-I were incubated with varying concentrations of Sba1 in a range of 0–25,000 nM (lowest non-zero concentration 12 nM) in reaction buffer containing 5 mM ATP. The experiment was performed twice in nonaplicates. For human p23 competition experiments for HSP90α-mNeonGreen–p23-mScarlet-I binding, 1 µM HSP90α-mNeonGreen and 1 µM p23-mScarlet-I were incubated with varying concentrations of p23 in a range of 0–50 000 nM (lowest non-zero concentration 23 nM) in reaction buffer containing 5 mM ATP. The experiment was performed twice in hexaplicates. […] The experiment was performed thrice in triplicates. […] The IC50,rel values were calculated using the equation log (inhibitor) vs. response-variable slope (four parameters) in GraphPad Prism 5. Ki values for inhibition of HSP90-mNeonGreen–Sba1-mScarlet-I/p23-mScarlet-I binding by non-labeled Sba1/p23 were calculated with One Site—Fit Ki in GraphPad Prism 5. […] The EC50,rel values were calculated using the log (agonist) vs. response-variable slope (four parameters) equation in GraphPad Prism 5."}, "human HSP90α–p23 binding": {"target": "T2, human HSP90α–p23 binding (Homo sapiens, UniProt P07900)", "T2 construct": "made in house; host or cells: E. coli Rosetta2(DE3) pLysS", "experiment": "FRET inhibitor screening assay, human HSP90α-p23 binding", "conditions": "10 or 100 µM, triplicates, 3 mM ATP, 1% DMSO, 15 min 37 °C", "text": "We used the Z′ factor (Z′) to optimize the FRET assays for screening purposes. Z′ represents a simple statistical parameter for the quality assessment and optimization of HTS assays and screening assays in general. It is a measure that determines the degree of signal separation between binding and non-binding data sets. Calculation of the Z′ factor is based on the standard deviation of the individual data sets as well as their general signal separation. Values ≥ 0.5 can be classified as excellent for screening purposes. […] When the fluorescent fusion proteins of HSP90 and co-chaperones bind to each other, FRET occurs between donor and acceptor fluorophores, and the sensitized emission (EmFRET) signal increases. Consequently, the fluorescence intensity of the donor decreases (FLDD). […] We defined the ‘hit threshold’ as a decrease in readout signal of more than 3 standard deviations (SDs) from the mean signal of the binding control. This constitutes a common threshold for hit identification in HTS campaigns.\nThe excitation and emission bandwidths were set to 9 and 20 nm, respectively. Experiments for the determination of the equilibrium dissociation constants were performed with a filter-based microplate reader Infinite F200Pro (Tecan, Männedorf, Switzerland). […] The correction factors x and y were calculated as follows:(2) x=FLDA/FLDD for samples containing only the donor fluorophore or fluorescent fusion proteins with mNeonGreen and (3) y=FLDA/FLAA for samples containing only the acceptor fluorophore or fluorescent fusion proteins with mScarlet-I in the same concentration as samples containing both the donor and acceptor.\nFor screening for the identification of ATP-competitive C. albicans HSP90 and HSP90-Sba1 binding inhibitors, 10 µL of HSP90-mNeonGreen (2 µM) and Sba1-mScarlet-I (4 µM) in HEPES buffer (40 mM HEPES/KOH pH 7.5, 20 mM KCl) was mixed with 10 µL of 200 µM compound solution in 2x reaction buffer (40 mM HEPES/KOH pH 7.5, 20 mM KCl, 10 mM MgCl2, 40 mM Na2MoO4, Triton-X 100 0.2%), 6 mM ATP, 2% DMSO, resulting ultimately in constant HSP90-mNeonGreen concentrations of 1 µM and Sba1-mScarlet-I 2 µM in reaction buffer. Samples for binding control (3 mM ATP, final concentration) and non-binding control (no ATP) were prepared in the same manner without compounds. The samples were incubated for 15 min at 30 °C prior to measurement. The assay for the human HSP90α–p23 binding inhibitor identification was performed analogously, with the exception that samples were incubated for 15 min at 37 °C prior to measurement. Since binding samples show both a high EmFRET as well as a reduction in donor emission (FLDD), we calculated the quotient (EmFRET/FLDD) to derive an improved signal separation and robustness. The nucleoside-mimetics library was obtained from Enamine (catalog No. NML-320-X-20, Enamine Ltd., Kyiv, Ukraine). Z′ and Z factors were calculated based on Zhang et al.."}, "human HSP90β": {"target": "human HSP90β", "set-up": "method as in PMID 16403413", "conditions": "read-out: Kd of human HSP90β–p23 complex; cited from earlier work"}, "human HSP90α": {"tested_on": "human HSP90α", "set-up": "method as in PMID 16403413", "conditions": "cited from earlier work"}}, "data": [{"substance": "p23: unlabeled human HSP90 co-chaperone p23 (Q15185), His6-tagged", "values": [{"measurement": "effect on FRET emission (EmFRET) versus untreated control", "setting": "[1]; 20 µM added, 1 µM HSP90α-mNeonGreen, 2 µM p23-mScarlet-I", "value": "significant reduction in FRET emission"}, {"measurement": "IC50", "setting": "[1]; donor and acceptor both 1 µM, read-out: relative IC50, inhibition of HSP90α-mNeonGreen–p23-mScarlet-I binding", "value": "1400 ± 200", "unit": "nM"}, {"measurement": "hit identification (EmFRET/FLDD decrease of more than 3 SDs from binding control mean)", "setting": "human HSP90α–p23 binding", "value": "identified as hits"}, {"measurement": "Kd", "setting": "human HSP90β", "value": 1500, "unit": "nM"}, {"measurement": "effect on HSP90 ATPase activity upon binding", "setting": "human HSP90α", "value": "complete abrogation"}]}]}
